Assay results taken from the supplement of paper PMC7877785.
± gives the uncertainty stated by the source.

Assay: self-splicing fitness, log relative to wild type (ln ratio); higher = more splicing; Tetrahymena group I intron in knt gene, E. coli kanamycin selection, DiMSum; sequences stand for … in CUCUCU…GGAGGGAAAAGUUAUCAGGCAUGCACCUGGUAGCUAGUCUUUAAACCAAUAGAUUGCAUCGGUUUAAAAGGCAAGACCGUCAAAUUGCGGGAAAGGGGUCAACAGCCGUUCAGUACCAAGUCUCAGGGGAAACUUUGAGAUGGCCUUGCAAAGGGUAUGGUAAUAAGCUGACGGACAUGGUCCUAACCACGCAGCCAAGUCCUAAGUCAACAGAUCUUCUGUUGAUAUGGAUGCAGUUCACAGACUAAAUGUCGGUCGGGGAAGAUGUAUUCUUCUCAUAAGAUAUAGUCGGACCUCUCCUUAAUGGGAGCUAGCGGAUGAAGUGAUGCAACACUGGAGCCGCUGGGAACUAAUUUGUAUGCGAAAGUAUAUUGAUUAGUUUUGGAGUACUCGUGGUCG
Procedure, shortened: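 Six replicate transformations of E. coli BL21(DE3) with a pET-22b(+) library were grown overnight at 37°C or 30°C. The library randomised all eight P1ex-region intron nucleotides, the intron lying in the knt kanamycin-resistance gene, and plates were LB agar with or without 25 μg/mL kanamycin plus 100 μg/mL carbenicillin, 50 μM IPTG and 0.2% rhamnose. Pooled colonies were amplicon-sequenced on an Illumina HiSeq 2500, and fitness is the DiMSum error-weighted combination of wild-type-normalised replicate fold changes, kanamycin versus none.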

Sequence | self-splicing fitness (ln) (30 °C) | self-splicing fitness (ln) (37 °C)
CGCGAGCAAUAUUACGUACG | -2.6 ± 0.24 | -1.5 ± 0.27
GCCCAGCAAUAUUACGUACU | -0.0223 ± 0.1 | -0.765 ± 0.15
CAACAGCAAUAUUACGAACU | -3.29 ± 0.15 | -0.988 ± 0.11
GCCUAGCAAUAUUACGAGUA | -1.7 ± 0.093 | -1.88 ± 0.085
UCCAAGCAAUAUUACGGUAC | -4.3 ± 0.23 | -2.81 ± 0.24
CGUGAGCAAUAUUACGACGU | -2.12 ± 0.19 | -2.37 ± 0.18
GGGUAGCAAUAUUACGUUUG | -1.9 ± 0.14 | -1.35 ± 0.21
UCAGAGCAAUAUUACGUUGC | – | -1.48 ± 0.32
CAGUAGCAAUAUUACGAUUA | -2.16 ± 0.13 | -1.73 ± 0.11
GGUAAGCAAUAUUACGUCGU | -1 ± 0.11 | -0.732 ± 0.12
UAUGAGCAAUAUUACGGCAG | -1.5 ± 0.25 | -0.674 ± 0.27
CACAAGCAAUAUUACGAACU | -3.64 ± 0.19 | -2.37 ± 0.17
AGCGAGCAAUAUUACGACUG | -1.91 ± 0.15 | -0.973 ± 0.17
AGUAAGCAAUAUUACGGGGA | -3.89 ± 0.31 | -2.3 ± 0.3
UAGAAGCAAUAUUACGCGUU | -2.89 ± 0.15 | -1.41 ± 0.13
GCCCAGCAAUAUUACGUGGC | -3.51 ± 0.22 | -1.39 ± 0.19
GUCGAGCAAUAUUACGUUUG | -2.54 ± 0.28 | -2.11 ± 0.24
GAUAAGCAAUAUUACGGUGA | -1.61 ± 0.093 | -1.1 ± 0.12
GAUGAGCAAUAUUACGGUUG | -3.87 ± 0.21 | -2.22 ± 0.18
GGUCAGCAAUAUUACGGCAA | 0.415 ± 0.065 | 0.217 ± 0.083
ACUAAGCAAUAUUACGCAUA | -1.9 ± 0.14 | -2.14 ± 0.14

Sequence | self-splicing fitness (ln) (30 °C) | self-splicing fitness (ln) (37 °C)
CGAAAGCAAUAUUACGGUUU | -2.51 ± 0.095 | -1.51 ± 0.11
UGACAGCAAUAUUACGACUU | -0.452 ± 0.068 | 0.389 ± 0.091
GGGUAGCAAUAUUACGCACG | -2.15 ± 0.26 | 0.541 ± 0.23
CGUUAGCAAUAUUACGGAGU | -4.73 ± 0.31 | -3.23 ± 0.26
UCAGAGCAAUAUUACGGACU | – | -1.77 ± 0.3
AUAUAGCAAUAUUACGGACG | -2.09 ± 0.16 | -1.07 ± 0.19
UUCUAGCAAUAUUACGCUCU | -1.9 ± 0.15 | -1.77 ± 0.15
AUCAAGCAAUAUUACGUAUA | -2.76 ± 0.23 | -2.31 ± 0.19
ACCGAGCAAUAUUACGUCCU | -1.71 ± 0.1 | -0.0861 ± 0.11
CUAUAGCAAUAUUACGGGGU | -4.1 ± 0.2 | -2.83 ± 0.28
UCCAAGCAAUAUUACGAAGG | -1.32 ± 0.11 | -0.206 ± 0.15
UGAAAGCAAUAUUACGAUUU | -1.08 ± 0.06 | -0.463 ± 0.077
ACCCAGCAAUAUUACGUACA | -1.85 ± 0.087 | -0.804 ± 0.085
ACUAAGCAAUAUUACGUGGU | -3.41 ± 0.15 | -2.73 ± 0.21
GCUGAGCAAUAUUACGCAUU | -2.67 ± 0.13 | -1.63 ± 0.2
ACAGAGCAAUAUUACGAAUU | -4.27 ± 0.33 | -1.57 ± 0.2
GGCGAGCAAUAUUACGGUCG | -1.13 ± 0.13 | -0.98 ± 0.16
AUCAAGCAAUAUUACGAACU | -0.00363 ± 0.11 | 0.0259 ± 0.11
CAAUAGCAAUAUUACGGUUU | -2.88 ± 0.13 | -1.88 ± 0.15
CGUCAGCAAUAUUACGAGGA | -2.27 ± 0.19 | -2.38 ± 0.28
GCGUAGCAAUAUUACGAUCG | -1.34 ± 0.12 | -0.204 ± 0.13
